This is an account of results in publication PMC2860068 (DNA repair, 2010).

Experiment [1] addresses hMSH3 (recombinant, subunit of purified hMutSβ) (human, UniProt P20585 1-1137). Kind of experiment: far-Western.
Experiment [2] addresses T1, hMSH6 (recombinant, subunit of purified hMutSα) (human, UniProt P52701 1-1360). Put plainly: pull-down.
Experiment [3] concerns the target T1, hMSH6 (recombinant, subunit of purified …). Put plainly: far-Western.

T1 sequence (P52701 whole entry): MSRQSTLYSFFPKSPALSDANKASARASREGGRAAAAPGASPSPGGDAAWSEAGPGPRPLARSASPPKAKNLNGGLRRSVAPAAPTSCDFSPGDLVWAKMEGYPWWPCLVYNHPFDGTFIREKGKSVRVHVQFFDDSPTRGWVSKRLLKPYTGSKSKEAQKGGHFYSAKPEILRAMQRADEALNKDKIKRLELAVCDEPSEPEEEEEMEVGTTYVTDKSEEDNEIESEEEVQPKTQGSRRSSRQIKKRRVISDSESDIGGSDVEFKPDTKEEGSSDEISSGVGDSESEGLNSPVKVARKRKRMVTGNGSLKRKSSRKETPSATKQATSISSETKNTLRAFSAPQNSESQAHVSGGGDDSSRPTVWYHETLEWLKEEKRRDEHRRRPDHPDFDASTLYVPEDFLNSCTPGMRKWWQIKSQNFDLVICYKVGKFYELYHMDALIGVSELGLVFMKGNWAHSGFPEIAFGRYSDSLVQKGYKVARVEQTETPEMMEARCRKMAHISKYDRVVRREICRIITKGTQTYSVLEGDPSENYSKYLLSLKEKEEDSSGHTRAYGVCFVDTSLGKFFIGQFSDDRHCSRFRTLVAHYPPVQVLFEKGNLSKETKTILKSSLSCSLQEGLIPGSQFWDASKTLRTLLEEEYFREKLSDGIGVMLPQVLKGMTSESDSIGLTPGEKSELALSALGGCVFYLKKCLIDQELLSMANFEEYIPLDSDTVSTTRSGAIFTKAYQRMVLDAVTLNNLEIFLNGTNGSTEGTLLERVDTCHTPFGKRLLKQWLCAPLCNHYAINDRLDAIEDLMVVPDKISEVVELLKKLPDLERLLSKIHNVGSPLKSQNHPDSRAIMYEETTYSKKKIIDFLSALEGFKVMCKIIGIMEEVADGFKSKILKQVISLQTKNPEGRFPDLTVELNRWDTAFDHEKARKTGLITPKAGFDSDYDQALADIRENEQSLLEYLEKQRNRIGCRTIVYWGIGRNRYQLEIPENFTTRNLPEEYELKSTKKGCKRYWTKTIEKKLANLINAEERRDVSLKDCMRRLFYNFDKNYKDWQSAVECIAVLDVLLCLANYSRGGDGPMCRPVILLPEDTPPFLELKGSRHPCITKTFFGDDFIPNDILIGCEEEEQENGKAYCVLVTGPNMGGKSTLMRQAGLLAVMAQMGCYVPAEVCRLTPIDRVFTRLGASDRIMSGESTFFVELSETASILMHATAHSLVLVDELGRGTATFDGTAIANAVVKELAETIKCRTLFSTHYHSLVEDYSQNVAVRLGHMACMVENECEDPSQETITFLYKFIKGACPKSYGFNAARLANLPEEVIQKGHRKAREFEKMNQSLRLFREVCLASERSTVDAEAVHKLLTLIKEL
Chain of hMSH3 (recombinant, subunit of purified hMutSβ) (P20585 whole entry): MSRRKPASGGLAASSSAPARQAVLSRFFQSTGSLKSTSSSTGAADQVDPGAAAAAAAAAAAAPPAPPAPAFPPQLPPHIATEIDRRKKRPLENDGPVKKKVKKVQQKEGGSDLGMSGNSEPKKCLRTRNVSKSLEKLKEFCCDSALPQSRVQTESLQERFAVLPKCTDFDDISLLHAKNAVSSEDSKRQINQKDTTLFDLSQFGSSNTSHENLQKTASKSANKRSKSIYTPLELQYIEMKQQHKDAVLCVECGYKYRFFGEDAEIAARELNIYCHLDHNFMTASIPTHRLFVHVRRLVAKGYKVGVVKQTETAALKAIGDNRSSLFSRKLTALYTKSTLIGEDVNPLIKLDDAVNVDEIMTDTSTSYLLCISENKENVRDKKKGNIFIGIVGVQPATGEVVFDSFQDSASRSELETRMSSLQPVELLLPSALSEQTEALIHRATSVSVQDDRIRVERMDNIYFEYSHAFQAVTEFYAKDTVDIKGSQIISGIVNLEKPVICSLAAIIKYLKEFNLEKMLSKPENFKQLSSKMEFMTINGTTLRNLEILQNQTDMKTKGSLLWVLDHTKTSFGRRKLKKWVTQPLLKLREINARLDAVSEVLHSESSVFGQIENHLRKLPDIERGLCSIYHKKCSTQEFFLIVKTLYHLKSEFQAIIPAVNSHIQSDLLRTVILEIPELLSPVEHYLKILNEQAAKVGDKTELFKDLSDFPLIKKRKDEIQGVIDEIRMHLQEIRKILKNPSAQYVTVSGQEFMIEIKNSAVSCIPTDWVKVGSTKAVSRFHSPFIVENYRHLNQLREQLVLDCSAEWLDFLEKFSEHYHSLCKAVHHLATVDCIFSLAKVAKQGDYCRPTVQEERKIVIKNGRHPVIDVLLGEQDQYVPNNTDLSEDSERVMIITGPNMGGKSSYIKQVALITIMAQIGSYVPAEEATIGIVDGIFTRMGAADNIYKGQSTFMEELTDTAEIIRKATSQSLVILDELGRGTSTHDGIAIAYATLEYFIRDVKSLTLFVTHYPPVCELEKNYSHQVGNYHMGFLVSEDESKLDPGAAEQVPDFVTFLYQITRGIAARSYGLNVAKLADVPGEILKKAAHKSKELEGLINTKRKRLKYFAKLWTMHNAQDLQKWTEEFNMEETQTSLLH

B1: GST-hHus1 (natural protein, human, UniProt O60921 1-280, looked up)
chain: MKFRAKIVDGACLNHFTRISNMIAKLAKTCTLRISPDKLNFILCDKLANGGVSMWCELEQENFFNEFQMEGVSAENNEIYLELTSENLSRALKTAQNARALKIKLTNKHFPCLTVSVELLSMSSSSRIVTHDIPIKVIPRKLWKDLQEPVVPDPDVSIYLPVLKTMKSVVEKMKNISNHLVIEANLDGELNLKIETELVCVTTHFKDLGNPPLASESTHEDRNVEHMAEVHIDIRKLLQFLAGQQVNPTKALCNIVNNKMVHFDLLHEDVSLQYFIPALS
In the case of B1, the binding result in experiment [1] and in experiment [2] was “binds” each time.

B2: GST-hRad1 (natural protein, human, UniProt O60671 1-282, looked up)
chain: MPLLTQQIQDEDDQYSLVASLDNVRNLSTILKAIHFREHATCFATKNGIKVTVENAKCVQANAFIQAGIFQEFKVQEESVTFRINLTVLLDCLSIFGSSPMPGTLTALRMCYQGYGYPLMLFLEEGGVVTVCKINTQEPEETLDFDFCSTNVINKIILQSEGLREAFSELDMTSEVLQITMSPDKPYFRLSTFGNAGSSHLDYPKDSDLMEAFHCNQTQVNRYKISLLKPSTKALVLSCKVSIRTDNRGFLSLQYMIRNEDGQICFVEYYCCPDEEVPESES
Consider B2, for which the binding result in experiment [3] was “binds”.

B3: GST-hRad9 (natural protein, human, UniProt Q99638 1-391, looked up)
chain: MKCLVTGGNVKVLGKAVHSLSRIGDELYLEPLEDGLSLRTVNSSRSAYACFLFAPLFFQQYQAATPGQDLLRCKILMKSFLSVFRSLAMLEKTVEKCCISLNGRSSRLVVQLHCKFGVRKTHNLSFQDCESLQAVFDPASCPHMLRAPARVLGEAVLPFSPALAEVTLGIGRGRRVILRSYHEEEADSTAKAMVTEMCLGEEDFQQLQAQEGVAITFCLKEFRGLLSFAESANLNLSIHFDAPGRPAIFTIKDSLLDGHFVLATLSDTDSHSQDLGSPERHQPVPQLQAHSTPHPDDFANDDIDSYMIAMETTIGNEGSRVLPSISLSPGPQPPKSPGPHSEEEDEAEPSTVPGTPPPKKFRSLFFGSILAPVRSPQGPSPVLAEDSEGEG
Take B3: in experiment [3], the binding result is reported as “binds”.
